Reference: paper PMC10470551 (mBio, 2023)

Key:
[1] = biological target: T1, CsTAL (Clostridium scatologenes, UniProt A0A0E3M5J5); assay: coupled assays (PfHBDH or CaHAD), NADH at […] nm; type: biochemical; conditions: 50 mM Tris-HCl pH 7.5, room temperature
T1 construct: gene CSCA_1088; recombinant, pET-28a(+), N-terminal His6 tag, E. coli BL21(DE3), Ni-NTA
T1 sequence (A0A0E3M5J5 1-281): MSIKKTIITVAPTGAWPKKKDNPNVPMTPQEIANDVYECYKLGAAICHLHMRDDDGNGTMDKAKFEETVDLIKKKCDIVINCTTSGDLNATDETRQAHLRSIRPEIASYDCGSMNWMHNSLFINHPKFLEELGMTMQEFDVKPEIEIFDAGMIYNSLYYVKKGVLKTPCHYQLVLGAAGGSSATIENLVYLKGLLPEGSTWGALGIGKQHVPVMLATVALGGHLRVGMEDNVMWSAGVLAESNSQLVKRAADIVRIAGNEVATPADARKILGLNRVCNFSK

[2] = substrate: Oc1cc(O)cc(O)c1; assay: purified protein; conditions: co-substrate NADPH, 50 mM Tris-HCl pH 7.5, room temperature
[3] = substrate: NC(=O)C1=CN([C@@H]2O[C@H](COP(=O)(O)OP(=O)(O)OC[C@H]3O[C@@H](n4cnc5c(N)ncnc54)[C@H](OP(=O)(O)O)[C@@H]3O)[C@@H](O)[C@H]2O)C=CC1; assay: purified protein; type: biochemical, Clostridium scatologenes; conditions: 50 mM Tris-HCl pH 7.5, room temperature
[4] = substrate: O=C1CC(=O)CC(O)C1; assay: purified protein; type: biochemical, Clostridium scatologenes; conditions: 2 mM Mn2+, 50 mM Tris-HCl pH 7.5, room temperature
[5] = substrate: NC(=O)C1=CN([C@@H]2O[C@H](COP(=O)(O)OP(=O)(O)OC[C@H]3O[C@@H](n4cnc5c(N)ncnc54)[C@H](O)[C@@H]3O)[C@@H](O)[C@H]2O)C=CC1; assay: purified protein; type: biochemical, Clostridium scatologenes; conditions: 2.0 mM triacetate (saturating), 50 mM Tris-HCl pH 7.5, room temperature
[6] = substrate: CC(=O)CC(=O)CC(=O)O; assay: purified protein; type: biochemical, Clostridium scatologenes; conditions: 1.0 mM NADPH, 50 mM Tris-HCl pH 7.5, room temperature
[7] = substrate: CC(=O)CC(=O)O; assay: purified protein; type: biochemical, Clostridium scatologenes; conditions: 1.0 mM NADPH, 50 mM Tris-HCl pH 7.5, room temperature

With `CC(=O)CC(=O)CC(=O)O` [TAA, 3,5-dioxohexanoate] the “coupled assays (PfHBDH or CaHAD), NADH at 340 nm” value ([1]; co-substrate acetyl-CoA) was “Incubation of CsTAL with triacetate and acetyl-CoA resulted in the formation of acetoacetate and acetoacetyl-CoA”.

For `CC(=O)SCCNC(=O)CCNC(=O)[C@H](O)C(C)(C)COP(=O)(O)OP(=O)(O)OC[C@H]1O[C@@H](n2cnc3c(N)ncnc32)[C@H](O)[C@@H]1OP(=O)(O)O` [acetyl-CoA], the “coupled assays (PfHBDH or CaHAD), NADH at 340 nm” value ([1]; co-substrate triacetate) was “Incubation of CsTAL with triacetate and acetyl-CoA resulted in the formation of acetoacetate and acetoacetyl-CoA”.

B1: CsPGR (Clostridium scatologenes) (protein)
chain: MVDKKLINNLFDVKGKVALLTGATGALGKAVAFGYGQAGMKVFITGRSDDKCKALCNELKVDGIECGYSIGDPAIEADVIKIVDDCVAKFGEINVLLTAAGYNHPQPIVEQDLTEWQKIMNSDVQGTWLFCKYVGQKMIDQGKGGKVILVSSARSKMGMAGYTGYCTAKAGIDLMAQSLACEWTAKYGINVNTINPTVFRSDLTEWMFDPESAVYKNFLRRLPIGRLGEPEDFVGPCIFLASSASDFMTGANVATEGGYWAN
notes: recombinant, pET-28a(+), N-terminal His6 tag, E. coli BL21(DE3), Ni-NTA
B1 was tested, and the Km [2] was 300 µM, the kcat [2] was 22.4 to 25.3 s⁻¹ and the Km ([3]; co-substrate phloroglucinol) was 210 µM. For the same molecule, the kcat ([3]; co-substrate phloroglucinol) was 22.4 to 25.3 s⁻¹.

B2: CsDPGC (Clostridium scatologenes) (protein)
chain: MGKKVYVDLTHPFSADIPRWPYFVKPVIDSMHSLAKGGVLTQRIDCVQHTGTHCDAPRHVMETEFNGKRARYTHEMPVDAYMGDAVCLEIKAGRWELITAAHLEDACKRANIKPEELEGMVVCLNTGMHRKFDDSKEYYHYSCGTGVEAGKWFVKYKVKCVAMDMQALDHPLHTAMGNNGATRLNLLGASGKPITEEYKEQFGEEAYAEFDKDEYIRIHGKEAYDAKFGDLEEIGCWGTWEPCHKEMLGHGIVGVENLGGDLDKVSGKRFRFLCLPIRWYMGDGSMVRCVAEIDEDNVNKDVADRVYTYGGF
notes: recombinant, pET-28a(+), N-terminal His6 tag, E. coli BL21(DE3), Ni-NTA; mostly apo as purified, Mn2+ added
In the case of B2, the Km [4] is reported as 190 ± 40 µM and the kcat [4] is reported as 1.04 ± 0.10 s⁻¹.

B3: CsTfD (Clostridium scatologenes) (protein)
chain: MGSIIKNITVFGPGMMGSGIAQVFAGCKDSHVTVFIREKFEYECIDKIKGNLQVMKEKGIVTDADIAELFSRITLTEDMKAATKDADFIIECIPENMELKQNLFKNLEDLCREDTIFATNTSVMSITEISEKSKLKTRIVGTHFWNPPYLIPLVEVVKSDYTSEEVMNKTMELLKTVKKHPIRVNKDVPGFVANRLQHALWREAISIVENGIADAKTVDEAVKYSFGLRLPHLGPIENADMVGTDLTLSIHDYILKHLDKSIEAAPIVRKMVEAGELGFKSGKGFQEWTPEQAKASNESLREYLLKVLYGK
notes: recombinant, codon-optimized synthetic gene, pET-28a(+), N-terminal His6 tag, E. coli BL21(DE3), Ni-NTA
B3 was tested, and the Km ([3]; 2.0 mM triacetate (saturating)) was 1700 µM, the Km [5] was 130 µM and the Km [6] was 550 µM. For the same molecule, the Km [7] was 3690 µM.
